# The supplement of paper PMC9732359
# ± gives the uncertainty stated by the source.
# Experiment: protein stability index of a GFP-peptide fusion (yeast GPS) (PSI 1-4); higher = more stable; sorted into four equal gates, so the index is relative within each strain
# Outline: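 Tiled yeast protein peptides of 17 residues were each joined downstream of GFP, on plasmids that also express Cherry. The pooled library was maintained in yeast, and mid-log cultures in leucine-free medium were sorted into four equal gates on the GFP/Cherry ratio. Plasmids from every gate were amplified by PCR and sequenced on Illumina, with barcodes linking reads to strains. The protein stability index of a peptide is its gate-number-weighted read frequency summed over the gates.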
sequence,measurement,setting,value
YSIPHPSENLLNIRIQT [RPC19],protein stability index,doa10∆,2.1 ± 0.098
same,protein stability index,pdr5∆,2.21 ± 0.078
same,protein stability index,san1∆,2.65 ± 0.12
same,protein stability index,ubr1∆,2.38 ± 0.11
QPSDVKPTSHKQLQQPK [SIR4],protein stability index,doa10∆,2.98 ± 0.096
same,protein stability index,pdr5∆,3.15 ± 0.088
same,protein stability index,san1∆,2.99 ± 0.084
same,protein stability index,ubr1∆,3.06 ± 0.076
SNKKETKKKRKPTEVND [ITC1],protein stability index,doa10∆,3.15 ± 0.078
same,protein stability index,pdr5∆,3.31 ± 0.074
same,protein stability index,san1∆,3.26 ± 0.07
same,protein stability index,ubr1∆,3.23 ± 0.062
SYYELETIIFDSELNRA [RRI1],protein stability index,doa10∆,2.96 ± 0.11
same,protein stability index,pdr5∆,3.13 ± 0.075
same,protein stability index,san1∆,2.97 ± 0.056
same,protein stability index,ubr1∆,2.93 ± 0.056
EEEIKKFDSRIRGILMA [PRP8],protein stability index,doa10∆,2.71 ± 0.066
same,protein stability index,pdr5∆,2.81 ± 0.074
same,protein stability index,san1∆,2.69 ± 0.052
same,protein stability index,ubr1∆,3.02 ± 0.051
VYKDNLSFIQVRIDLGT [RPO31],protein stability index,doa10∆,1.28 ± 0.071
same,protein stability index,pdr5∆,1.58 ± 0.074
same,protein stability index,san1∆,1.79 ± 0.1
same,protein stability index,ubr1∆,1.52 ± 0.082
VSLSQLLFIVGQVAIKT [YCS4],protein stability index,doa10∆,1.85 ± 0.062
same,protein stability index,pdr5∆,2.27 ± 0.062
same,protein stability index,san1∆,1.71 ± 0.088
same,protein stability index,ubr1∆,2.13 ± 0.046
PLSQDELISLRKILESS [YIL149C/MLP2],protein stability index,doa10∆,2.45 ± 0.077
same,protein stability index,pdr5∆,2.67 ± 0.067
same,protein stability index,san1∆,2.15 ± 0.076
same,protein stability index,ubr1∆,2.32 ± 0.093
NVNSRNQLVEPNRIKLS [SRB5],protein stability index,doa10∆,2.29 ± 0.061
same,protein stability index,pdr5∆,2.43 ± 0.052
same,protein stability index,san1∆,2.48 ± 0.059
same,protein stability index,ubr1∆,2.19 ± 0.036
SVLHSWVQLVQIIVTDG [YJL039C/NUP192],protein stability index,doa10∆,1.58 ± 0.049
same,protein stability index,pdr5∆,1.98 ± 0.056
same,protein stability index,san1∆,1.28 ± 0.085
same,protein stability index,ubr1∆,1.54 ± 0.055
SPYAAMLAAQDVAAKCK [RPS14A],protein stability index,doa10∆,2.28 ± 0.05
same,protein stability index,pdr5∆,1.82 ± 0.048
same,protein stability index,san1∆,1.62 ± 0.067
same,protein stability index,ubr1∆,1.88 ± 0.048
DEEGIFSRFVDQFIRHV [YCG1],protein stability index,doa10∆,2.98 ± 0.16
same,protein stability index,pdr5∆,2.79 ± 0.13
same,protein stability index,san1∆,2.99 ± 0.085
same,protein stability index,ubr1∆,2.93 ± 0.06
IRNEGSDAEEEEGEYKN [ISW2],protein stability index,ubr1∆,3.44 ± 0.11
ISKQKSKLDYIFKDKEK [SMC1],protein stability index,doa10∆,2.78 ± 0.14
same,protein stability index,pdr5∆,2.71 ± 0.12
same,protein stability index,san1∆,2.89 ± 0.15
same,protein stability index,ubr1∆,3.29 ± 0.091
GVERLIPVGDNTVVGIS [PRE4],protein stability index,doa10∆,2.96 ± 0.089
same,protein stability index,pdr5∆,2.91 ± 0.081
same,protein stability index,san1∆,2.84 ± 0.064
same,protein stability index,ubr1∆,2.69 ± 0.086
IFTEKIYKSIFNVVDVG [YJL039C/NUP192],protein stability index,doa10∆,1.99 ± 0.07
same,protein stability index,pdr5∆,1.71 ± 0.072
same,protein stability index,san1∆,1.72 ± 0.14
same,protein stability index,ubr1∆,1.33 ± 0.065
VLARISPELSLQRHLSL [RRP43],protein stability index,doa10∆,2.47 ± 0.054
same,protein stability index,pdr5∆,2.04 ± 0.072
same,protein stability index,san1∆,2.02 ± 0.093
same,protein stability index,ubr1∆,2.47 ± 0.05
TQTFNGSIFTHETTFMT [YML031W/NDC1],protein stability index,doa10∆,2.86 ± 0.063
same,protein stability index,pdr5∆,2.79 ± 0.066
same,protein stability index,san1∆,2.84 ± 0.035
same,protein stability index,ubr1∆,2.89 ± 0.047
VASQSPHATATEKEPVP [SNF6],protein stability index,doa10∆,3.23 ± 0.11
same,protein stability index,pdr5∆,3.06 ± 0.061
same,protein stability index,san1∆,2.88 ± 0.15
same,protein stability index,ubr1∆,3.35 ± 0.077
IHSLVKQRLDLARQVKL [YIL149C/MLP2],protein stability index,doa10∆,2.69 ± 0.064
same,protein stability index,pdr5∆,2.6 ± 0.061
same,protein stability index,san1∆,3.03 ± 0.064
same,protein stability index,ubr1∆,2.83 ± 0.047
